Assay results from the supplement of paper PMC5998384.

Legend:
HeLa Kyoto [1] = assay: solubility in G1/S (NP-40 vs SDS abundance) (log2 ratio); higher = more soluble; conditions: cell cycle stage: G1/S
HeLa Kyoto [2] = assay: melting temperature (median over replicates), in situ; higher = more thermally stable
HeLa Kyoto [3] = assay: solubility change mitosis vs G1/S (difference of NP-40 vs SDS log2 ratios) (log2 ratio difference); higher = more soluble in mitosis
HeLa Kyoto [4] = assay: thermal stability score vs G1/S (z-score of summed log2 fold changes over temperatures); higher = more thermally stable than in G1/S
[5] = cell cycle stage: early G1 (4.5 h after nocodazole release)
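For melting temperature (median over replicates), in situ in this document: HeLa Kyoto cells synchronized by double thymidine or nocodazole block, proteins quantified by TMT10plex mass spectrometry, three independent biological replicates.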
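For solubility change mitosis vs G1/S (difference of NP-40 vs SDS log2 ratios) in this document: synchronized HeLa Kyoto cells (double thymidine block for G1/S, nocodazole release for mitosis), protein amounts in NP-40 versus SDS lysates quantified by mass spectrometry, three biological replicates.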
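For solubility in G1/S (NP-40 vs SDS abundance) in this document: HeLa Kyoto cells arrested at G1/S by double thymidine block, proteins quantified by TMT10plex mass spectrometry in mild NP-40 versus SDS extracts, three biological replicates.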
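For thermal stability score vs G1/S (z-score of summed log2 fold changes over temperatures) in this document: synchronized HeLa Kyoto cells, proteins quantified by TMT10plex mass spectrometry, three biological replicates, mitosis taken 0.5 h after nocodazole release, G1/S directly after double thymidine block.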

Sequence | solubility in G1/S (log2) (HeLa Kyoto [1]) | melting temperature (HeLa Kyoto [2]; cell cycle stage: G1/S) | melting temperature (HeLa Kyoto [2]; cell cycle stage: mitosis) | solubility change mitosis (log2) (HeLa Kyoto [3]) | thermal stability score (HeLa Kyoto [4]; [5]) | thermal stability score (HeLa Kyoto [4]; cell cycle stage: mitosis)
MNGKRPAEPGPARVGKKGKKEVMAEFSDAVTEETLKKQVAEAWSRRTPFSHEVIVMDMDPFLHCVIPNFIQSQDFLEGLQKELMNLDFHEKYNDLYKFQQSDDLKKRREPHISTLRKILFEDFRSWLSDISKIDLESTIDMSCAKYEFTDALLCHDDELEGRRIAFILYLVPPWDRSMGGTLDLYSIDEHFQPKQIVKSLIPSWNKLVFFEVSPVSFHQVSEVLSEEKSRLSISGWFHGPSLTRPPNYFEPPIPRSPHIPQDHEILYDWINPTYLDMDYQVQIQEEFEESSEILLKEFLKPEKFTKVCEALEHGHVEWSSRGPPNKRFYEKAEESKLPEILKECMKLFRSEALFLLLSNFTGLKLHFLAPSEEDEMNDKKEAETTDITEEGTSHSPPEPENNQMAISNNSQQSNEQTDPEPEENETKKESSVPMCQGELRHWKTGHYTLIHDHSKAEFALDLILYCGCEGWEPEYGGFTSYIAKGEDEELLTVNPESNSLALVYRDRETLKFVKHINHRSLEQKKTFPNRTGFWDFSFIYYE [OGFOD1] | -0.0197 | 53.1 °C | 53.6 °C | -0.151 | 1.93 | 0.186
MNGRADFREPNAEVPRPIPHIGPDYIPTEEERRVFAECNDESFWFRSVPLAATSMLITQGLISKGILSSHPKYGSIPKLILACIMGYFAGKLSYVKTCQEKFKKLENSPLGEALRSGQARRSSPPGHYYQKSKYDSSVSGQSSFVTSPAADNIEMLPHYEPIPFSSSMNESAPTGITDHIVQGPDPNLEESPKRKNITYEELRNKNRESYEVSLTQKTDPSVRPMHERVPKKEVKVNKYGDTWDE [OCIAD1] | 0.219 | 55.9 °C | 53.1 °C | 0.225 | -1.09 | -4.47
MNHSERFVFIAEWYDPNASLLRRYELLFYPGDGSVEMHDVKNHRTFLKRTKYDNLHLEDLFIGNKVNVFSRQLVLIDYGDQYTARQLGSRKEKTLALIKPDAISKAGEIIEIINKAGFTITKLKMMMLSRKEALDFHVDHQSRPFFNELIQFITTGPIIAMEILRDDAICEWKRLLGPANSGVARTDASESIRALFGTDGIRNAAHGPDSFASAAREMELFFPSSGGCGPANTAKFTNCTCCIVKPHAVSEGLLGKILMAIRDAGFEISAMQMFNMDRVNVEEFYEVYKGVVTEYHDMVTEMYSGPCVAMEIQQNNATKTFREFCGPADPEIARHLRPGTLRAIFGKTKIQNAVHCTDLPEDGLLEVQYFFKILDN [NME7] | -0.32 | 48.9 °C | 48.8 °C | 0.0736 | 0.587 | 0.668
MNIRNARPEDLMNMQHCNLLCLPENYQMKYYFYHGLSWPQLSYIAEDENGKIVGYVLAKMEEDPDDVPHGHITSLAVKRSHRRLGLAQKLMDQASRAMIENFNAKYVSLHVRKSNRAALHLYSNTLNFQISEVEPKYYADGEDAYAMKRDLTQMADELRRHLELKEKGRHVVLGAIENKVESKGNSPPSSGEACREEKGLAAEDSGGDSKDLSEVSETTESTDVKDSSEASDSAS [NAA10] | 0.263 | 53.4 °C | 53.1 °C | -0.0427 | -0.13 | -1.02
MNIVVEFFVVTFKVLWAFVLAAARWLVRPKEKSVAGQVCLITGAGSGLGRLFALEFARRRALLVLWDINTQSNEETAGMVRHIYRDLEAADAAALQAGNGEEEILPHCNLQVFTYTCDVGKRENVYLTAERVRKEVGEVSVLVNNAGVVSGHHLLECPDELIERTMMVNCHAHFWTTKAFLPTMLEINHGHIVTVASSLGLFSTAGVEDYCASKFGVVGFHESLSHELKAAEKDGIKTTLVCPYLVDTGMFRGCRIRKEIEPFLPPLKPDYCVKQAMKAILTDQPMICTPRLMYIVTFMKSILPFEAVVCMYRFLGADKCMYPFIAQRKQATNNNEAKNGI [RDH10] | -0.308 | 53.4 °C | 52.9 °C | -0.104 | -3.18 | -3.77
MNKKKKPFLGMPAPLGYVPGLGRGATGFTTRSDIGPARDANDPVDDRHAPPGKRTVGDQMKKNQAADDDDEDLNDTNYDEFNGYAGSLFSSGPYEKDDEEADAIYAALDKRMDERRKERREQREKEEIEKYRMERPKIQQQFSDLKRKLAEVTEEEWLSIPEVGDARNKRQRNPRYEKLTPVPDSFFAKHLQTGENHTSVDPRQTQFGGLNTPYPGGLNTPYPGGMTPGLMTPGTGELDMRKIGQARNTLMDMRLSQVSDSVSGQTVVDPKGYLTDLNSMIPTHGGDINDIKKARLLLKSVRETNPHHPPAWIASARLEEVTGKLQVARNLIMKGTEMCPKSEDVWLEAARLQPGDTAKAVVAQAVRHLPQSVRIYIRAAELETDIRAKKRVLRKALEHVPNSVRLWKAAVELEEPEDARIMLSRAVECCPTSVELWLALARLETYENARKVLNKARENIPTDRHIWITAAKLEEANGNTQMVEKIIDRAITSLRANGVEINREQWIQDAEECDRAGSVATCQAVMRAVIGIGIEEEDRKHTWMEDADSCVAHNALECARAIYAYALQVFPSKKSVWLRAAYFEKNHGTRESLEALLQRAVAHCPKAEVLWLMGAKSKWLAGDVPAARSILALAFQANPNSEEIWLAAVKLESENDEYERARRLLAKARSSAPTARVFMKSVKLEWVQDNIRAAQDLCEEALRHYEDFPKLWMMKGQIEEQKEMMEKAREAYNQGLKKCPHSTPLWLLLSRLEEKIGQLTRARAILEKSRLKNPKNPGLWLESVRLEYRAGLKNIANTLMAKALQECPNSGILWSEAIFLEARPQRRTKSVDALKKCEHDPHVLLAVAKLFWSQRKITKAREWFHRTVKIDSDLGDAWAFFYKFELQHGTEEQQEEVRKRCESAEPRHGELWCAVSKDIANWQKKIGDILRLVAGRIKNTF [PRPF6] | -0.849 | 46.8 °C | 48.1 °C | 0.428 | 1.08 | 5.32
MNLASQSGEAGAGQLLFANFNQDNTEVKGASRAAGLGRRAVVWSLAVGSKSGYKFFSLSSVDKLEQIYECTDTEDVCIVERLFSSSLVAIVSLKAPRKLKVCHFKKGTEICNYSYSNTILAVKLNRQRLIVCLEESLYIHNIRDMKVLHTIRETPPNPAGLCALSINNDNCYLAYPGSATIGEVQVFDTINLRAANMIPAHDSPLAALAFDASGTKLATASEKGTVIRVFSIPEGQKLFEFRRGVKRCVSICSLAFSMDGMFLSASSNTETVHIFKLETVKEKPPEEPTTWTGYFGKVLMASTSYLPSQVTEMFNQGRAFATVRLPFCGHKNICSLATIQKIPRLLVGAADGYLYMYNLDPQEGGECALMKQHRLDGSLETTNEILDSASHDCPLVTQTYGAAAGKGTYVPSSPTRLAYTDDLGAVGGACLEDEASALRLDEDSEHPPMILRTD [WIPI2] | 0.0209 | 50.4 °C | 51.1 °C | -0.0675 | -0.953 | -0.659
MNPAAEAEFNILLATDSYKVTHYKQYPPNTSKVYSYFECREKKTENSKLRKVKYEETVFYGLQYILNKYLKGKVVTKEKIQEAKDVYKEHFQDDVFNEKGWNYILEKYDGHLPIEIKAVPEGFVIPRGNVLFTVENTDPECYWLTNWIETILVQSWYPITVATNSREQKKILAKYLLETSGNLDGLEYKLHDFGYRGVSSQETAGIGASAHLVNFKGTDTVAGLALIKKYYGTKDPVPGYSVPAAEHSTITAWGKDHEKDAFEHIVTQFSSVPVSVVSDSYDIYNACEKIWGEDLRHLIVSRSTQAPLIIRPDSGNPLDTVLKVLEILGKKFPVTENSKGYKLLPPYLRVIQGDGVDINTLQEIVEGMKQKMWSIENIAFGSGGGLLQKLTRDLLNCSFKCSYVVTNGLGINVFKDPVADPNKRSKKGRLSLHRTPAGNFVTLEEGKGDLEEYGQDLLHTVFKNGKVTKSYSFDEIRKNAQLNIELEAAHH [NAMPT] | 0.264 | 56.9 °C | 55.9 °C | -0.0826 | -1.65 | -1.17
MNQKLLKLENLLRFHTIYRQLHSLCQRRALRQWRHGFSSAYPVWTAQLCAWPWPTDVLTGAALSQYRLLVTKKEEGPWKSQLSSTKSKKVVEVWIGMTIEELARAMEKNTDYVYEALLNTDIDIDSLEADSHLDEVWIKEVITKAGMKLKWSKLKQDKVRKNKDAVRRPQADPALLTPRSPVVTIMGHVDHGKTTLLDKFRKTQVAAVETGGITQHIGAFLVSLPSGEKITFLDTPGHAAFSAMRARGAQVTDIVVLVVAADDGVMKQTVESIQHAKDAQVPIILAVNKCDKAEADPEKVKKELLAYDVVCEDYGGDVQAVPVSALTGDNLMALAEATVALAEMLELKADPNGPVEGTVIESFTDKGRGLVTTAIIQRGTLRKGSVLVAGKCWAKVRLMFDENGKTIDEAYPSMPVGITGWRDLPSAGEEILEVESEPRAREVVDWRKYEQEQEKGQEDLKIIEEKRKEHKEAHQKAREKYGHLLWKKRSILRFLERKEQIPLKPKEKRERDSNVLSVIIKGDVDGSVEAILNIIDTYDASHECELELVHFGVGDVSANDVNLAETFDGVIYGFNVNAGNVIQQSAAKKGVKIKLHKIIYRLVEDLQEELSSRLPCAVEEHPVGEASILATFSVTEGKKKVPVAGCRVQKGQLEKQKKFKLTRNGHVIWKGSLTSLKHHKDDISIVKTGMDCGLSLDEDNMEFQVGDRIVCYEEKQIQAKTSWDPGF [MTIF2] | -0.146 | 49.7 °C | 49.1 °C | -0.0734 | -0.325 | 0.122
MNRSHRHGAGSGCLGTMEVKSKFGAEFRRFSLERSKPGKFEEFYGLLQHVHKIPNVDVLVGYADIHGDLLPINNDDNYHKAVSTANPLLRIFIQKKEEADYSAFGTDTLIKKKNVLTNVLRPDNHRKKPHIVISMPQDFRPVSSIIDVDILPETHRRVRLYKYGTEKPLGFYIRDGSSVRVTPHGLEKVPGIFISRLVPGGLAQSTGLLAVNDEVLEVNGIEVSGKSLDQVTDMMIANSRNLIITVRPANQRNNVVRNSRTSGSSGQSTDNSLLGYPQQIEPSFEPEDEDSEEDDIIIEDNGVPQQIPKAVPNTESLESLTQIELSFESGQNGFIPSNEVSLAAIASSSNTEFETHAPDQKLLEEDGTIITL [PARD6B] | -0.226 | 51 °C | – | 0.0857 | -0.366 | -0.685
MNVNQSVPPVPPFGQPQPIYPGYHQSSYGGQSGSTAPAIPYGAYNGPVPGYQQTPPQGMSRAPPSSGAPPASTAQAPCGQAAYGQFGQGDVQNGPSSTVQMQRLPGSQPFGSPLAPVGNQPPVLQPYGPPPTSAQVATQLSGMQISGAVAPAPPSSGLGFGPPTSLASASGSFPNSGLYGSYPQGQAPPLSQAQGHPGIQTPQRSAPSQASSFTPPASGGPRLPSMTGPLLPGQSFGGPSVSQPNHVSSPPQALPPGTQMTGPLGPLPPMHSPQQPGYQPQQNGSFGPARGPQSNYGGPYPAAPTFGSQPGPPQPLPPKRLDPDAIPSPIQVIEDDRNNRGTEPFVTGVRGQVPPLVTTNFLVKDQGNASPRYIRCTSYNIPCTSDMAKQAQVPLAAVIKPLARLPPEEASPYVVDHGESGPLRCNRCKAYMCPFMQFIEGGRRFQCCFCSCINDVPPQYFQHLDHTGKRVDAYDRPELSLGSYEFLATVDYCKNNKFPSPPAFIFMIDVSYNAIRTGLVRLLCEELKSLLDFLPREGGAEESAIRVGFVTYNKVLHFYNVKSSLAQPQMMVVSDVADMFVPLLDGFLVNVNESRAVITSLLDQIPEMFADTRETETVFVPVIQAGMEALKAAECAGKLFLFHTSLPIAEAPGKLKNRDDRKLINTDKEKTLFQPQTGAYQTLAKECVAQGCCVDLFLFPNQYVDVATLSVVPQLTGGSVYKYASFQVENDQERFLSDLRRDVQKVVGFDAVMRVRTSTGIRAVDFFGAFYMSNTTDVELAGLDGDKTVTVEFKHDDRLNEESGALLQCALLYTSCAGQRRLRIHNLALNCCTQLADLYRNCETDTLINYMAKFAYRGVLNSPVKAVRDTLITQCAQILACYRKNCASPSSAGQLILPECMKLLPVYLNCVLKSDVLQPGAEVTTDDRAYVRQLVTSMDVTETNVFFYPRLLPLTKSPVESTTEPPAVRASEERLSNGDIYLLENGLNLFLWVGASVQQGVVQSLFSVSSFSQITSGLSVLPVLDNPLSKKVRGLIDSLRAQRSRYMKLTVVKQEDKMEMLFKHFLVEDKSLSGGASYVDFLCHMHKEIRQLLS [SEC24C] | 0.0263 | 50.6 °C | 50.3 °C | -0.121 | 1.19 | 1.53
